Laboratory results as given in the supplement of paper PMC10567573.

B1: ZNF263 (parent)
chain: HLTRHQRTHTGEKPYKCTLCGENF
B2: BTBD1 (parent)
chain: IVGFGLYGSIHGPTDYQVNIQIIE

Variants of: B1
Test: protein stability index of a GFP-peptide fusion (GPS, HEK-293T) (PSI 1-6); higher = more stable
Conditions: c terminus: a fixed tail appended
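Also: lentivirally expressed fusions sorted by FACS into six bins by GFP to DsRed ratio, PSI derived from sequencing read proportions per bin multiplied by bin number.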

Variant | protein stability index
HLERHQRTHTGEKPYKCTLCGENF | 3.29
HLARHQRTHTGEKPYKCTLCGENF | 2.88
HLFRHQRTHTGEKPYKCTLCGENF | 2.3
HLCRHQRTHTGEKPYKCTLCGENF | 3.47
HLDRHQRTHTGEKPYKCTLCGENF | 3.77
HGTRHQRTHTGEKPYKCTLCGENF | 3.51
HETRHQRTHTGEKPYKCTLCGENF | 3.31
HVTRHQRTHTGEKPYKCTLCGENF | 3.39
HPTRHQRTHTGEKPYKCTLCGENF | 3.57
HATRHQRTHTGEKPYKCTLCGENF | 3.06
HNTRHQRTHTGEKPYKCTLCGENF | 3.73
HQTRHQRTHTGEKPYKCTLCGENF | 3.22
HHTRHQRTHTGEKPYKCTLCGENF | 3.53
HSTRHQRTHTGEKPYKCTLCGENF | 3.8
HMTRHQRTHTGEKPYKCTLCGENF | 3.04
HITRHQRTHTGEKPYKCTLCGENF | 2.59
HWTRHQRTHTGEKPYKCTLCGENF | 2.71
HTTRHQRTHTGEKPYKCTLCGENF | 3.14
HRTRHQRTHTGEKPYKCTLCGENF | 2.79
HFTRHQRTHTGEKPYKCTLCGENF | 2.9
HYTRHQRTHTGEKPYKCTLCGENF | 3.3
HCTRHQRTHTGEKPYKCTLCGENF | 4.73

Variant | protein stability index
HDTRHQRTHTGEKPYKCTLCGENF | 4.16
HKTRHQRTHTGEKPYKCTLCGENF | 3.38
ELTRHQRTHTGEKPYKCTLCGENF | 2.97
CLTRHQRTHTGEKPYKCTLCGENF | 4.02
MLTRHQRTHTGEKPYKCTLCGENF | 3.02
PLTRHQRTHTGEKPYKCTLCGENF | 4.14
FLTRHQRTHTGEKPYKCTLCGENF | 1.36
DLTRHQRTHTGEKPYKCTLCGENF | 2.97
NLTRHQRTHTGEKPYKCTLCGENF | 3.22
WLTRHQRTHTGEKPYKCTLCGENF | 2.22
KLTRHQRTHTGEKPYKCTLCGENF | 2.74
GLTRHQRTHTGEKPYKCTLCGENF | 2.19
RLTRHQRTHTGEKPYKCTLCGENF | 3.02
YLTRHQRTHTGEKPYKCTLCGENF | 2.23
QLTRHQRTHTGEKPYKCTLCGENF | 3.06
ALTRHQRTHTGEKPYKCTLCGENF | 3.07
VLTRHQRTHTGEKPYKCTLCGENF | 2.46
SLTRHQRTHTGEKPYKCTLCGENF | 3.12
LLTRHQRTHTGEKPYKCTLCGENF | 3.11
TLTRHQRTHTGEKPYKCTLCGENF | 2.56
ILTRHQRTHTGEKPYKCTLCGENF | 2.19

Variants of: B2
Test: as above
Conditions: c terminus: a fixed tail appended

Variant | protein stability index
IVGFGLYGSIHGPTDYQVNICIIE | 2.19
IVGFGLYGSIHGPTDYQVNIAIIE | 3.82
IVGFGLYGSIHGPTDYQVNIYIIE | 3.06
IVGFGLYGSIHGPTDYQVNIWIIE | 1.5
IVGFGLYGSIHGPTDYQVNIRIIE | 2.53
IVGFGLYGSIHGPTDYQVNIPIIE | 2.37
IVGFGLYGSIHGPTDYQVNIDIIE | 3.52
IVGFGLYGSIHGPTDYQVNITIIE | 2.1
IVGFGLYGSIHGPTDYQVNIGIIE | 2.44
IVGFGLYGSIHGPTDYQVNIFIIE | 1.77
IVGFGLYGSIHGPTDYQVNILIIE | 2.66
IVGFGLYGSIHGPTDYQVNIEIIE | 2.68
IVGFGLYGSIHGPTDYQVNIIIIE | 2.01
IVGFGLYGSIHGPTDYQVNIQIIH | 2.33
IVGFGLYGSIHGPTDYQVNIQIIF | 1.72
IVGFGLYGSIHGPTDYQVNIQIIK | 2.36
IVGFGLYGSIHGPTDYQVNIQIIY | 2.02
IVGFGLYGSIHGPTDYQVNIQIIA | 2.41
IVGFGLYGSIHGPTDYQVNIQIIP | 2.89
IVGFGLYGSIHGPTDYQVNIQIIW | 3.21
IVGFGLYGSIHGPTDYQVNIQIIQ | 2.62
IVGFGLYGSIHGPTDYQVNIQIIL | 4.16
IVGFGLYGSIHGPTDYQVNIQIIT | 3.78
IVGFGLYGSIHGPTDYQVNIQIIS | 2.78
IVGFGLYGSIHGPTDYQVNIQIII | 2.08

Variant | protein stability index
IVGFGLYGSIHGPTDYQVNIQIIV | 2.95
IVGFGLYGSIHGPTPYQVNIQIIE | 2.37
IVGFGLYGSIHGPTSYQVNIQIIE | 3.04
IVGFGLYGSIHGPTGYQVNIQIIE | 2.52
IVGFGLYGSIHGPTMYQVNIQIIE | 2.99
IVGFGLYGSIHGPTEYQVNIQIIE | 3.19
IVGFGLYGSIHGPTNYQVNIQIIE | 2.36
IVGFGLYGSIHGPTAYQVNIQIIE | 2.57
IVGFGLYGSIHGPTYYQVNIQIIE | 3.42
IVGFGLYGSIHGPTCYQVNIQIIE | 2.97
IVGFGLYGSIHGPTVYQVNIQIIE | 2.67
IVGFGLYGSIHGPTLYQVNIQIIE | 3.05
IVGFGLYGSIHGPTIYQVNIQIIE | 3.86
IVGFGLYGSIHGPTDYQVPIQIIE | 3.38
IVGFGLYGSIHGPTDYQVMIQIIE | 4.59
IVGFGLYGSIHGPTDYQVWIQIIE | 1.76
IVGFGLYGSIHGPTDYQVHIQIIE | 1.59
IVGFGLYGSIHGPTDYQVRIQIIE | 2.13
IVGFGLYGSIHGPTDYQVVIQIIE | 4.07
IVGFGLYGSIHGPTDYQVIIQIIE | 3.1
IVGFGLYGSIHGPTDYQVTIQIIE | 3.11
IVGFGLYGSIHGPTDYQVQIQIIE | 2.56
IVGFGLYGSIHGPTDYQVGIQIIE | 1.59
IVGFGLYGSIHGPTDDQVNIQIIE | 2.5
IVGFGLYGSIHGPTDGQVNIQIIE | 4.04

Variant | protein stability index
IVGFGLYGSIHGPTDKQVNIQIIE | 3.23
IVGFGLYGSIHGPTDLQVNIQIIE | 2.09
IVGFGLYGSIHGPTDNQVNIQIIE | 2.41
IVGFGLYGSIHGPTDEQVNIQIIE | 2.15
IVGFGLYGSIHGPTDMQVNIQIIE | 2.38
IVGFGLYGSIHGPTDWQVNIQIIE | 3.98
IVGFGLYGSIHGPTDAQVNIQIIE | 2.1
IVGFGLYGSIHGPTDCQVNIQIIE | 3.51
IVGFGLYGSIHGPTDIQVNIQIIE | 3.59
IVGFGLYGSIHGPTDQQVNIQIIE | 1.69
IVGFGLYGSIHGPTDHQVNIQIIE | 1.6
IVGFGLYGSIHGPTDTQVNIQIIE | 4.3
IVGFGLYGSIHGPTDYQVNIQFIE | 2.84
IVGFGLYGSIHGPTDYQVNIQWIE | 3.36
IVGFGLYGSIHGPTDYQVNIQCIE | 4.32
IVGFGLYGSIHGPTDYQVNIQYIE | 2.48
IVGFGLYGSIHGPTDYQVNIQLIE | 2.65
IVGFGLYGSIHGPTDYQVNIQDIE | 1.3
IVGFGLYGSIHGPTDYQVNIQVIE | 3.25
IVGFGLYGSIHGPTDYQVNIQGIE | 1.91
IVGFGLYGSIHGPTDYQVNIQSIE | 2.09
IVGFGLYGSIHGPTDYQVNIQHIE | 2.4
IVGFGLYGSIHGPTDYQVNIQKIE | 2.4
IVGFGLYGSIHGPTDYQVNIQAIE | 2.07
IVGFGLYGSIHGPTDYQVNIQQIE | 3

Variant | protein stability index
IVGFGLYGSIHGPTDYQVNIQEIE | 2
IVGFGLYGSIHGPTDYQVNIQPIE | 3.17
IVGFGLYGSIHGPTDYQVNIQNIE | 1.24
IVGFGLYGSIHGPTDYQVNIQIEE | 2.23
IVGFGLYGSIHGPTDYQVNIQIWE | 1.57
IVGFGLYGSIHGPTDYQVNIQIRE | 2.12
IVGFGLYGSIHGPTDYQVNIQIPE | 2.21
IVGFGLYGSIHGPTDYQVNIQICE | 2.05
IVGFGLYGSIHGPTDYQVNIQIKE | 2.13
IVGFGLYGSIHGPTDYQVNIQIYE | 2.12
IVGFGLYGSIHGPTDYQVNIQIVE | 2.82
IVGFGLYGSIHGPTDYQVNIQISE | 2.29
IVGFGLYGSIHGPTDYQVNIQILE | 2.96
IVGFGLYGSIHGPTDYQVNIQINE | 3.56
IVGFGLYGSIHGPTDYQVNIQIHE | 4.05
IVGFGLYGSIHGPTDYQVNIQIME | 3.68
IVGFGLYGSIHGPTDYQTNIQIIE | 4
IVGFGLYGSIHGPTDYQDNIQIIE | 2.32
IVGFGLYGSIHGPTDYQFNIQIIE | 2.14
IVGFGLYGSIHGPTDYQNNIQIIE | 1.8
IVGFGLYGSIHGPTDYQHNIQIIE | 1.58
IVGFGLYGSIHGPTDYQKNIQIIE | 2.42
IVGFGLYGSIHGPTDYQQNIQIIE | 2.38
IVGFGLYGSIHGPTDYQLNIQIIE | 3.15
IVGFGLYGSIHGPTDYQRNIQIIE | 2.39

Variant | protein stability index
IVGFGLYGSIHGPTDYQENIQIIE | 2.36
IVGFGLYGSIHGPTDYQINIQIIE | 2.72
IVGFGLYGSIHGYTDYQVNIQIIE | 2.98
IVGFGLYGSIHGPTDYKVNIQIIE | 2.3
IVGFGLYGSIHGPTDYCVNIQIIE | 2.49
IVGFGLYGSIHGPTDYYVNIQIIE | 2.44
IVGFGLYGSIHGPTDYEVNIQIIE | 2.95
IVGFGLYGSIHGPTDYNVNIQIIE | 2.98
IVGFGLYGSIHGPTDYDVNIQIIE | 2.09
IVGFGLYGSIHGPTDYPVNIQIIE | 1.98
IVGFGLYGSIHGPTDYVVNIQIIE | 2.48
IVGFGLYGSIHGPTDYFVNIQIIE | 2.95
IVGFGLYGSIHGPTDYAVNIQIIE | 3.68
IVGFGLYGSIHGPTDYGVNIQIIE | 4.09
IVGFGLYGSIHGPTDYTVNIQIIE | 2.53
IVGFGLYGSIHGPTDYSVNIQIIE | 2.31
IVGFGLYGSIHGPTDYRVNIQIIE | 3.14
IVGFGLYGSIHGPTDYQVNAQIIE | 2.29
IVGFGLYGSIHGPTDYQVNPQIIE | 2.21
IVGFGLYGSIHGPTDYQVNVQIIE | 2.83
IVGFGLYGSIHGPTDYQVNTQIIE | 2.13
IVGFGLYGSIHGPTDYQVNLQIIE | 3.4
IVGFGLYGSIHGPTDYQVNSQIIE | 1.93
IVGFGLYGSIHGPTDYQVNKQIIE | 1.16
IVGFGLYGSIHGPTDYQVNEQIIE | 1.46

Variant | protein stability index
IVGFGLYGSIHGPTDYQVNMQIIE | 4.04
IVGFGLYGSIHGPTDYQVNQQIIE | 2.58
IVGFGLYGSIHGPTDYQVNHQIIE | 2.21
IVGFGLYGSIHGPTDYQVNCQIIE | 2.49
IVGFGLYGSIHGPTDYQVNNQIIE | 1.24
IVGFGLYGSIHGPTDYQVNRQIIE | 2.12
IVGFGLYGSIHGPTDYQVNDQIIE | 2.31
IVGFGLYGSIHGPPDYQVNIQIIE | 3.3
IVGFGLYGSIHGPNDYQVNIQIIE | 2.95
IVGFGLYGSIHGPWDYQVNIQIIE | 2.9
IVGFGLYGSIHGPRDYQVNIQIIE | 4.46
IVGFGLYGSIHGPHDYQVNIQIIE | 2.71
IVGFGLYGSIHGPQDYQVNIQIIE | 3.12
IVGFGLYGSIHGPVDYQVNIQIIE | 2.82
IVGFGLYGSIHGPSDYQVNIQIIE | 3.24
IVGFGLYGSIHGPIDYQVNIQIIE | 2.73
IVGFGLYGSIHGPCDYQVNIQIIE | 2.51
IVGFGLYGSIHGPDDYQVNIQIIE | 2.94
IVGFGLYGSIHGPYDYQVNIQIIE | 3.03
IVGFGLYGSIHGPMDYQVNIQIIE | 3.23
